Test results as given in patent US20250019442A1 (LANOVA MEDICINES, published 2025).
Numbering of substitutions follows the chain as printed.

B1: Pembrolizumab (antibody, V domains shown)
VH: QVQLVQSGVEVKKPGASVKVSCKASGYTFTNYYMYWVRQAPGQGLEWMGGINPSNGGTNFNEKFKNRVTLTTDSSTTTAYMELKSLQFDDTAVYYCARRDYRFDMGFDYWGQGTTVTVSS
VL: EIVLTQSPATLSLSPGERATLSCRASKGVSTSGYSYLHWYQQKPGQAPRLLIYLASYLESGVPARFSGSGSGTDFTLTISSLEPEDFAVYYCQHSRDLPLTFGGGTKVEIKR
B2: VH18 (anti-PD-1 VHH) (VHH)
VHH: EVQLVESGGGLVQPGGSLRLSCAVSGNIYNRNFMGWFRQAPGKGREGVSAIYTGTSRTYYADSVKGRFTISRDNAKNTVYLQMNSLRPEDTAVYYCAADLRDGFWDTGVWNTWGQGTLVTVSS
notes: also called VH18 VHH; anti-PD1 parental antibody VH18
B3: VH8M1 (anti-PD-1 VHH) (VHH)
VHH: B2 VHH with R45L, A75S, P88A, D102E
notes: also called VH8M1 VHH; anti-PD-1 parental nanobody

What was measured:
cynomolgus PD1 = target: T1, cynomolgus PD1 (cynomolgus, UniProt B0LAJ3 25-170); assay: ELISA, cynomolgus PD1 coated, anti-human IgG-HRP detection
T1 construct: Recombinant protein for ELISA; also called cynomolgus PD1 protein
T1 sequence (B0LAJ3 entry or part of it limits assumed, form in doubt): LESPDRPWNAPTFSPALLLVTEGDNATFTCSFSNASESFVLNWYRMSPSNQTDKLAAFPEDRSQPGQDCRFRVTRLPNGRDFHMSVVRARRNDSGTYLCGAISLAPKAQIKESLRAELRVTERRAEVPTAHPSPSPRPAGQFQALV
Protocol: (§1) To evaluate PD1 binding activity of the test bispecific antibodies, human PD1 and cynomolgus PD1 diluted in PBS were coated on a microplate respectively at 4° C. overnight. Three-fold dilution of test antibodies starting from 100 nM were added to each well and incubated for 1 hours at 25° C. Then, the plates were washed with ELISA washing buffer (1×DPBS with 0.5% Tween-20) and incubated with peroxidase conjugated anti-human IgG secondary antibody for 60 minutes at 25° C. After washed four times with ELISA washing buffer, the plates were detected by TMB-ELISA substrate solution, then stopped by ELISA stopping solution and analyzed by microplate reader at OD450 nm.

human PD1 = target: T2, human PD1 (human, UniProt Q15116 25-167, limits assumed); assay: ELISA, human PD1 coated, anti-human IgG-HRP detection
T2 construct: Recombinant protein for ELISA; also called human PD1 protein
T2 sequence (Q15116 25-167 limits assumed): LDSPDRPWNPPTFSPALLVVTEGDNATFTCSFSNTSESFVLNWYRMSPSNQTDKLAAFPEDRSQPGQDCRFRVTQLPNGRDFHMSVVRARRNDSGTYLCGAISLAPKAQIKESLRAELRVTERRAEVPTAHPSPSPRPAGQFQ
Protocol: as §1

[1] = target: T3, human PD-1 overexpressed on cells (human, UniProt Q15116 25-288); assay: flow cytometry on CHO-K1 cells overexpressing human PD-1, PE secondary antibody
T3 construct: whole, on cells; also called CHO-K1 cells overexpressing human PD-1; Jurkat-PD1 cells
T3 sequence (Q15116 25-288): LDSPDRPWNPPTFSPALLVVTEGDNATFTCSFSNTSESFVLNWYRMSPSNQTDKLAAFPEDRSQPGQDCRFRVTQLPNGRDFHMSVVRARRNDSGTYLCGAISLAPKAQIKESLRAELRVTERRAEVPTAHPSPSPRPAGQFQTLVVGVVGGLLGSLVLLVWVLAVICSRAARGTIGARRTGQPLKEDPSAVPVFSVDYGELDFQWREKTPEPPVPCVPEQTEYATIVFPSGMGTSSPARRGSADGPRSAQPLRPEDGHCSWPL
Protocol: (§2) To further determine PD-1 binding activity of the bispecific antibodies, CHO-K1 cells overexpressing human PD-1 were incubated with different concentrations of anti-PD1-VEGF bispecific antibodies and reference antibodies at 4° C. for 30 minutes. Then, the cells were washed twice with FACS buffer and stained with PE conjugated secondary antibody at 4° C. for 30 minutes. After wash twice with FACS buffer, MFI of PE was analyzed by a NovoCyte flow cytometer.

[2] = target: T3, human PD-1 overexpressed on cells; assay: flow cytometry on CHO-K1 cells overexpressing human PD-1; column headed OD450 but the text says MFI of PE; set-up: unit not given here
Protocol: as §2

[3] = target: T3, human PD-1 overexpressed on cells; assay: cell-based or functional assay

Binder | EC50 (cynomolgus PD1) | Top (OD450) (cynomolgus PD1) | EC50 (human PD1) | Top (OD450) (human PD1) | EC50 [1] | Top (OD450) [2] | EC50 (nM), PD1 blocking activity (PD1 reporter gene assay) [3] | Top (RLU), PD1 blocking activity (PD1 reporter gene assay) [3]
B1 | 0.057 nM | 1.17 OD450 | – | – | – | – | – | –
B2 | 0.151 nM | 1.56 OD450 | 0.083 nM | 1.75 OD450 | 2.35 nM | 963000 | 11.2 nM | 191000 RLU
B3 | – | – | – | – | 0.759 nM | 448000 | 13.3 nM | 201000 RLU
